Source: patent US20190015484A1, “NICOTINE-DEGRADING ENZYMES FOR TREATING NICOTINE ADDICTION AND NICOTINE POISONING” (priority 2015, published 2019)
Entries after “also recorded” stand apart in the source; their conditions may differ.

Assays:
[1] = Temperature curve of NicA2; assay type: biochemical; settings: HEPES buffer, 20-95° C.
Protocol: 100 μL of each solution was mixed, incubated, quenched and then analyzed as detailed, vide supra.
The effect of higher temperatures on the enzyme's stability was also examined.

[2] = NicA2 co-factor assay (FAD or FMN); assay type: biochemical; settings: 40 μM FMN or FAD, room temperature
Protocol: An FAD or FMN stock solution was added to nicotine HEPES solution to obtain 80 μM FAD or FMN mixed with 4 μM nicotine. 100 μL each sample was mixed with
100 μL 40 nM NicA2 and incubated at room temperature for 20 min. An additional sample without FAD or FMN was prepared at the same time as the control. The samples were analyzed as described above.

[3] = In vitro NicA2 activity in rat serum at physiologically relevant nicotine levels; assay type: biochemical; settings: for % Reduction in nicotine levels in vitro: rat serum, 37° C.
Protocol: NicA2 was diluted in rat serum (controls: serum without NicA2) to give a final concentration of 400 nM, 200 nM, and 20 nM. Nicotine was diluted in 50 mM HEPES pH 7.5 to give final amounts of 640, […], 80, 40, 20, 10, 5 and 2.5 ng (spanning a nicotine concentration range of 3.2 μg/ml to 12.5 ng/ml). The diluted NicA2 in serum and diluted nicotine were mixed 1:1 after pre-equilibration at 37° C. and 5 min (in 200 μl total). After 4 minutes or 20 minutes, reactions were diluted and quenched by addition of 800 μl H2O+500 μl 2M NaOH/0.2M NH4OH. At the highest NicA2 concentration (400 nM) initial plasma nicotine levels of 25 and 50 ng/ml dropped to <2 ng/ml at 4 min. (Table A).

[4] = NicA2 PK study in mice (ELISA of serum); assay type: in vivo, mouse
Protocol: Purified His-tagged NicA2 was conjugated to 20 kDa PEG and subsequently purified by HPLC. […] The fusion protein was expressed in E. coli and purified as described above for NicA2.
His-tagged NicA2, NicA2-PEG or NicA2-ABD was dosed intravenously in mice at 5 mg/kg. Blood sampling was done at pre-dose and then over a 5 min-72 h period (three animals per time-point) and processed to serum.
Assay of serum samples was done taking advantage of the C-terminal His-tag on the test articles. MaxiSorp ELISA plates (Nunc) were coated overnight with anti-His×6 antibody (purchased from R&D Systems). Plates were blocked with 4% dry milk (purchased from Bio-Rad) in PBS. Dilutions of standard and serum samples in 2% milk in PBS+0.1% Tween-20 were added to the plates, and incubated for 1 hour at room temperature. After washing away unbound substances (all wash steps performed in PBS+0.1% Tween-20), rabbit anti-NicA2 polyclonal primary detection antibody (purchased from Noble Life Sciences, Inc.) was added to the wells for a 1 hour incubation. […] Plates were washed, and the remaining binding complex was detected with TMB substrate (3,3′,5,5′-tetramethylbenzidine; KPL). Once stopped with acid, plates were read on a spectrophotometer at 450 nm and data analyzed in SoftMax® Pro, version 6.5.1 (purchased from Molecular Devices). […]

B1: NicA2: flavin-containing nicotine-degrading enzyme of Pseudomonas putida S16, amino acid sequence SEQ ID NO:1 (protein)
chain: MSDKTKTNEGFSRRSFIGSAAVVTAGVAGLGAIDAASATQKTNRASTVKGGFDYDVVVVGGGFAGATAARECGLQGYRTLLLEARSRLGGRTFTSRFAGQEIEFGGAWVHWLQPHVWAEMQRYGLGVVEDPLTNLDKTLIMYNDGSVESISPDEFGKNIRIAFEKLCHDAWEVFPRPHEPMFTERARELDKSSVLDRIKTLGLSRLQQAQINSYMALYAGETTDKFGLPGVLKLFACGGWNYDAFMDTETHYRIQGGTIGLINAMLTDSGAEVRMSVPVTAVEQVNGGVKIKTDDDEIITAGVVVMTVPLNTYKHIGFTPALSKGKQRFIKEGQLSKGAKLYVHVKQNLGRVFAFADEQQPLNWVQTHDYSDELGTILSITIARKETIDVNDRDAVTREVQKMFPGVEVLGTAAYDWTADPFSLGAWAAYGVGQLSRLKDLQAAEGRILFAGAETSNGWHANIDGAVESGLRAGREVKQLLS
modifications: His tag
- optimum temperature [1]: 70 °C
- effect of added FMN or FAD on NicA2 activity [2]: no change in NicA2 activity; also recorded: did not affect the activity
- % Reduction in nicotine levels in vitro ([3]; 20 nM NicA2, nicotine 25 ng/ml): 17%
- % Reduction in nicotine levels in vitro ([3]; 20 nM NicA2, nicotine 50 ng/ml): 8%
- % Reduction in nicotine levels in vitro ([3]; 20 nM NicA2, nicotine 100 ng/ml): 4%
- % Reduction in nicotine levels in vitro ([3]; 200 nM NicA2, nicotine 25 ng/ml): 100%
- % Reduction in nicotine levels in vitro ([3]; 200 nM NicA2, nicotine 50 ng/ml): 100%
- % Reduction in nicotine levels in vitro ([3]; 200 nM NicA2, nicotine 100 ng/ml): 72%
- nicotine level remaining ([3]; 400 nM NicA2, initial nicotine 25 and 50 ng/ml, at 4 min): < 2 ng/mL
- % Reduction in nicotine levels in vitro ([3]; 400 nM NicA2, nicotine 25 ng/ml): 100%
- % Reduction in nicotine levels in vitro ([3]; 400 nM NicA2, nicotine 50 ng/ml): 100%
- % Reduction in nicotine levels in vitro ([3]; 400 nM NicA2, nicotine 100 ng/ml): 94%
- half-life in vivo ([4]; in vivo in mammals, due to renal clearance): 3 to 4 h
- Half-life ([4]; mice, 5 mg/kg intravenously, serum): 3.7 h
